The record followed here is publication PMC7072996, “Engineering Herbicide-Tolerance Rice Expressing an Acetohydroxyacid Synthase with a Single Amino Acid Deletion” (International Journal of Molecular Sciences, 2020).

Substrate in the data set: CC(=O)C(=O)O
As to the kind of experiment: acetolactate to acetoin, creatine/naphthol colorimetric A525, Michaelis-Menten. Particulars: pH 7.5 phosphate, 10 mM MgCl2, 20 uM FAD, 1 mM thiamine pyrophosphate, 37 °C, no herbicide. It counts as biochemical, Oryza sativa. The source says: acetolactate to acetoin, creatine/naphthol colorimetric A525, Michaelis-Menten on AHAS-WT (rice acetohydroxyacid synthase)

B1: AHAS-WT (rice acetohydroxyacid synthase) (Oryza sativa Japonica Group; DEL548-548) (protein)
chain: TPLRPWGPAEPRKGADILVEALERCGVSDVFAYPGGASMEIHQALTRSPVITNHLFRHEQGEAFAASGYARASGRVGVCVATSGPGATNLVSALADALLDSVPMVAITGQVPRRMIGTDAFQETPIVEVTRSITKHNYLVLDVEDIPRVIQEAFFLASSGRPGPVLVDIPKDIQQQMAVPVWDTSMNLPGYIARLPKPPATELLEQVLRLVGESRRPILYVGGGCSASGDELRWFVELTGIPVTTTLMGLGNFPSDDPLSLRMLGMHGTVYANYAVDKADLLLAFGVRFDDRVTGKIEAFASRAKIVHIDIDPAEIGKNKQPHVSICADVKLALQGLNALLQQSTTKTSSDFSAWHNELDQQKREFPLGYKTFGEEIPPQYAIQVLDELTKGEAIIATGVGQHQMWAAQYYTYKRPRQWLSSAGLGAMGFGLPAAAGASVANPGVTVVDIDGDGSFLMNIQELALIRIENLPVKVMVLNNQHLGMVVQEDRFYKANRAHTYLGNPECESEIYPDFVTIAKGFNIPAVRVTKKSEVRAAIKKMLETPGPYLLDIIVPHQEHVLPMIPSGGAFKDMILDGDGRTVY
notes: mature AHAS, N-terminal 59-residue signal (transit) peptide removed; pGEX4T2, E. coli Rosetta; GST tag cut by thrombin; 64 kDa; WT mainly dimer (128 kDa), small tetramer peak (256 kDa); deletion mutant dimer only
In general, Km refers to the concentration of substrate that gives half-maximal velocity. The term kcat denotes the maximal rate divided by the concentration of active sites. The kcat/Km is the turnover number divided by the Michaelis constant. In the case of B1, the Km stood at 9.4 ± 0.4 mM, the kcat worked out at 6.6 ± 0.5 s⁻¹ and the catalytic efficiency (kcat/Km) was determined as 700 ± 50 M⁻¹ s⁻¹.

B2: AHAS-WT (rice acetohydroxyacid synthase) (Oryza sativa Japonica Group) (protein)
chain: TPLRPWGPAEPRKGADILVEALERCGVSDVFAYPGGASMEIHQALTRSPVITNHLFRHEQGEAFAASGYARASGRVGVCVATSGPGATNLVSALADALLDSVPMVAITGQVPRRMIGTDAFQETPIVEVTRSITKHNYLVLDVEDIPRVIQEAFFLASSGRPGPVLVDIPKDIQQQMAVPVWDTSMNLPGYIARLPKPPATELLEQVLRLVGESRRPILYVGGGCSASGDELRWFVELTGIPVTTTLMGLGNFPSDDPLSLRMLGMHGTVYANYAVDKADLLLAFGVRFDDRVTGKIEAFASRAKIVHIDIDPAEIGKNKQPHVSICADVKLALQGLNALLQQSTTKTSSDFSAWHNELDQQKREFPLGYKTFGEEIPPQYAIQVLDELTKGEAIIATGVGQHQMWAAQYYTYKRPRQWLSSAGLGAMGFGLPAAAGASVANPGVTVVDIDGDGSFLMNIQELALIRIENLPVKVMVLNNQHLGMVVQWEDRFYKANRAHTYLGNPECESEIYPDFVTIAKGFNIPAVRVTKKSEVRAAIKKMLETPGPYLLDIIVPHQEHVLPMIPSGGAFKDMILDGDGRTVY
notes: as for B1
Turning to B2, the Michaelis-Menten constant (Km) was determined as 9.2 ± 0.4 mM, the kcat is 6.7 ± 0.3 s⁻¹ and the specificity constant (kcat/Km) turned out to be 710 ± 30 M⁻¹ s⁻¹.
